In patent publication US20200393470A1 (Regeneron, published 2020):

T1: human ANGPTL8 (human, UniProt Q6UXH0 22-198)
T1 construct: also called hANGPTL8; Angiopoietin-like protein 8
T1 sequence: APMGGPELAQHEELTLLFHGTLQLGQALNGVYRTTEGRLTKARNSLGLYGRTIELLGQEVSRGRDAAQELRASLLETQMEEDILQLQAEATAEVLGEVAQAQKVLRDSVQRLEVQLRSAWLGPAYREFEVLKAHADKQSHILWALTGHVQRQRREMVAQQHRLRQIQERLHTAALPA

T2: human ANGPTL8 dimer protein with mouse Fc tag (human, UniProt Q6UXH0 22-198)
T2 construct: also called hANGPTL8.mFc; dimer form of human ANGPTL8; not shown: mouse Fc tag
T2 sequence: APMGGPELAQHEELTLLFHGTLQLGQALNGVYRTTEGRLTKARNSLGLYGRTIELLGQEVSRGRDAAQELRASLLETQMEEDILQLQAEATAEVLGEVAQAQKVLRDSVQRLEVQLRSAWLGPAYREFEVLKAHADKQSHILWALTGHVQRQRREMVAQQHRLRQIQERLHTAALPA

B1: H4H15361P2 (antibody, human IgG4, V domains shown)
VH: EVQLVESGGGLVQPGRSLRLSCTASGFSFGDNAMGWVRQAPGKGLEWVSFIRRKASGGTTEYAASVKGRFTISRDDSKSIAYLQMNSLKTEDTGVYYCTRGGAVYGYWGQGTLVTVSS
VL: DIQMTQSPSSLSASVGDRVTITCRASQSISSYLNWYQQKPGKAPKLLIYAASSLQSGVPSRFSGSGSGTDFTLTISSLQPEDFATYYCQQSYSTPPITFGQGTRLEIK
notes: also called anti-human C19orf80 (ANGPTL8) (H4H15361P2); biotinylated-H4H15361P2
B2: H4H15341P (antibody, human IgG4, V domains shown)
VH: EVQLVESGGGLVQPGGSLRLSCAASGFTFNNHEMNWVRQAPGKGLEWVSYISSSGNTVTYADFLKGRFTISRDNAKNSLFLQMNSLRDEDTAVYYCARDHLSGTSPLSYWGQGTLVTVSS
VL: DIQMTQSPSSLSASVGDRVTITCQASQDINNYLNWFQQKPGKAPKLLIFDASNLETGVPSRFSGSGSGTDFTFTISSLQPEDIATYFCQQYENLPYTFGQGTKLEIK
notes: also called biotinylated-H4H15341P
B3: H4H15318P (antibody, V domains shown)
VH: QVQLVESGGGVVQPGRSLRLSCTASGFTFGNFGIHWVRQAPGKGLEWVAVISYDGTDKFYADPVKGRFIISRDNSMNILYLQMNSLRAEDTAVYYCAKDGEMELRGYYYYYGMDVWGQGTTVTVSS
VL: DIQMTQSPSSVSASVGDRVTITCRASQGINTWLAWYQQKPGTAPKLLIFAASSLESGVPSRFSGSGFGTDFTLTISSLQSEDLATYFCQQVHSPPYTFGQGTKLEIK
notes: Used unlabelled in the immunoprecipitation and as capture mAb, and biotinylated as detection mAb in the sandwich ELISA; also called biotin-H4H15318P; biotinylated anti-human C19orf80 (ANGPTL8) (biotin-H4H15318P)
B4: H4H15347P (antibody, human IgG4, V domains shown)
VH: EVQLVESGGGLVQPGGSLRLSCAASGFTFRNYAMNWARQAPGKGLEWVSGITGSGGATYYADSVKGRFTISRENSKNTLFLQMDTLRAEDTAVYYCAKDRRYFPTSGGPQWGQGTLVTVSS
VL: DIVMTQSPLSLPVTPGEPASISCRSSRSLLHSSGYNYLDWYLQKPGQSPQLLLYLGSNRASGVPDRFSGSGSGTYFTLKISRVDAEDVGVYYCMQALQTPWTFGQGTKVEIK
notes: Capture mAb of the final ELISA; also called anti-human C19orf80 (ANGPTL8) (H4H15347P); biotinylated-H4H15347P

Experiments:
human ANGPTL8 [1] = target: T1, human ANGPTL8; test: sandwich ELISA on ex vivo serum samples
Protocol: (§1) Proteins and mAbs stored at −80° C. were thawed and kept on ice, as they were needed. The wells of the ELISA plate were coated with capture mAb, at a concentration of 4 μg/mL in PBS, and a volume of 100 μL/well. The plate was covered with a plate sealer, and stored at 4° C. overnight (approximately 18 hours). The wells of the plate were then washed with 350 μL/well wash buffer (0.1% Tween-20 in PBS), for a total of 3 washes, using an automated plate washer. Excess wash remnants were removed by inverting and tapping the plate against clean paper towels. Blocking buffer (1% Fraction V BSA in PBS) was added at 300 μL/well. The plate was covered with a plate sealer, and placed on a plate shaker at room temperature, shaking at 300 rpm for a minimum of 1 hour.
(§2) After the blocking period, the wells of the ELISA plate were washed again, and excess wash remnants were removed, as previously described. The standards and the diluted samples were added to the plate in duplicate, with 100 μL/well. The plate was covered with a plate sealer and placed on a plate shaker at room temperature, shaking at 500 rpm for 2 hours. The wells of the ELISA plate were washed again, and excess wash remnants were removed, as previously described. The detection mAb was added at a concentration of 400 ng/mL in assay diluent (1% Fraction V BSA/0.1% Tween-20 in PBS), with 150 μL/well. […]

[2] = target: T2, human ANGPTL8 dimer protein with mouse …; test: sandwich ELISA, capture mAb, dimer (mFc) standard
Protocol: as §1, §2

human ANGPTL8 [3] = target: T1, human ANGPTL8; test: immunoprecipitation from cell conditioned media, Western blot
Protocol: The selection process involved performing a series of immunoprecipitations (IPs), in which each mAb was incubated with cell conditioned media (CM) containing the human ANGPTL8 protein. A resin that identifies human IgG4 was then applied to the mAb/CM mixtures. The resin beads targeted the mAbs, binding the mAb-human ANGPTL8 complex. A series of Western blots probing for human ANGPTL8 were run on the various fractions of the IPs, and anti-human ANGPTL8 mAbs were selected based on high human ANGPTL8 expression in the IP fractions, with low human ANGPTL8 expression in the unbound fractions.

[4] = target: T2, human ANGPTL8 dimer protein with mouse …; test: sandwich ELISA, biotinylated detection mAb, dimer (mFc) standard
Protocol: as §1, §2

Binder	binding result (human ANGPTL8 [1])	binding result [2]	binding result (human ANGPTL8 [3])	binding result [4]
B1	binds	binds	–	–
B2	–	–	binds	–
B3	–	–	binds	binds
B4	binds	binds	–	–
